The source of these data is article PMC5870055, “Structural and Mechanistic Analysis of the Choline Sulfatase from Sinorhizobium melliloti: A Class I Sulfatase Specific for an Alkyl Sulfate Ester” (Journal of Molecular Biology, 2018).

To fix the notation:
B1: Sinorhizobium meliloti choline sulfatase wild type (enzyme, Sinorhizobium meliloti 1021, UniProt O69787 1-512, looked up)
chain: MTTGKPNILIIMVDQLNGKLFPDGPADFLHAPNLKALAKRSARFHNNYTSSPLCAPARASFMAGQLPSRTRVYDNAAEYQSSIPTYAHHLRRAGYYTALSGKMHFVGPDQLHGFEERLTTDIYPADFGWTPDYRKPGERIDWWYHNLGSVTGAGVAEITNQMEYDDEVAFLANQKLYQLSRENDDESRRPWCLTVSFTHPHDPYVARRKFWDLYEDCEHLTPEVGAIPLDEQDPHSQRIMLSCDYQNFDVTEENVRRSRRAYFANISYLDEKVGELIDTLTRTRMLDDTLILFCSDHGDMLGERGLWFKMNFFEGSARVPLMIAGPGIAPGLHLTPTSNLDVTPTLADLAGISLEEVRPWTDGVSLVPMVNGVERTEPVLMEYAAEASYAPLVAIREGKWKYVYCALDPEQLFDLEADPLELTNLAENPRGPVDQATLTAFRDMRAAHWDMEAFDAAVRESQARRWVVYEALRNGAYYPWDHQPLQKASERYMRNHMNLDTLEESKRYPRGE
modifications: Cys54 partially converted into formylglycine (fGly); modelled as cysteine and formyl glycine at 50% occupancy each
notes: Choline sulfatase (BetC) of S. meliloti 1021; the whole gene (positions 1491-3029 of GenBank U39940) amplified from genomic DNA and cloned into pASK-IBA5plus; the C-terminal region is printed as residues 449-512; Protomer Mw ~61 kDa; also called SmCS; SmCS WT; source: E. coli BL21(DE3) expressing MtbFGE, purified (Q-Sepharose, Strep-Tactin, Superdex 200)
B2: SmCS Δ12 (truncated mutant lacking 12 C-terminal amino acids) (domain or fragment, Sinorhizobium meliloti 1021, UniProt O69787 1-500, looked up)
chain: MTTGKPNILIIMVDQLNGKLFPDGPADFLHAPNLKALAKRSARFHNNYTSSPLCAPARASFMAGQLPSRTRVYDNAAEYQSSIPTYAHHLRRAGYYTALSGKMHFVGPDQLHGFEERLTTDIYPADFGWTPDYRKPGERIDWWYHNLGSVTGAGVAEITNQMEYDDEVAFLANQKLYQLSRENDDESRRPWCLTVSFTHPHDPYVARRKFWDLYEDCEHLTPEVGAIPLDEQDPHSQRIMLSCDYQNFDVTEENVRRSRRAYFANISYLDEKVGELIDTLTRTRMLDDTLILFCSDHGDMLGERGLWFKMNFFEGSARVPLMIAGPGIAPGLHLTPTSNLDVTPTLADLAGISLEEVRPWTDGVSLVPMVNGVERTEPVLMEYAAEASYAPLVAIREGKWKYVYCALDPEQLFDLEADPLELTNLAENPRGPVDQATLTAFRDMRAAHWDMEAFDAAVRESQARRWVVYEALRNGAYYPWDHQPLQKASERYMRNHMNLD
notes: Choline sulfatase (BetC) of S. meliloti 1021 with Thr501 replaced by a stop codon, so that the last 12 residues (501-512) are missing; Predominantly a tetramer (87%), with some dimer (11%) and monomer (2%); Made from the pASK-IBA5plusSmCS WT plasmid by QuikChange; source: E. coli BL21(DE3) expressing MtbFGE, purified (Q-Sepharose, Strep-Tactin, Superdex 200)
B3: SmCS Δ23 (truncated mutant lacking 23 C-terminal amino acids) (domain or fragment, Sinorhizobium meliloti 1021, UniProt O69787 1-489, looked up)
chain: MTTGKPNILIIMVDQLNGKLFPDGPADFLHAPNLKALAKRSARFHNNYTSSPLCAPARASFMAGQLPSRTRVYDNAAEYQSSIPTYAHHLRRAGYYTALSGKMHFVGPDQLHGFEERLTTDIYPADFGWTPDYRKPGERIDWWYHNLGSVTGAGVAEITNQMEYDDEVAFLANQKLYQLSRENDDESRRPWCLTVSFTHPHDPYVARRKFWDLYEDCEHLTPEVGAIPLDEQDPHSQRIMLSCDYQNFDVTEENVRRSRRAYFANISYLDEKVGELIDTLTRTRMLDDTLILFCSDHGDMLGERGLWFKMNFFEGSARVPLMIAGPGIAPGLHLTPTSNLDVTPTLADLAGISLEEVRPWTDGVSLVPMVNGVERTEPVLMEYAAEASYAPLVAIREGKWKYVYCALDPEQLFDLEADPLELTNLAENPRGPVDQATLTAFRDMRAAHWDMEAFDAAVRESQARRWVVYEALRNGAYYPWDHQPLQKAS
notes: Choline sulfatase (BetC) of S. meliloti 1021 with Glu490 replaced by a stop codon, so that the last 23 residues (490-512) are missing; Predominantly a dimer (78%); source: E. coli BL21(DE3) expressing MtbFGE, purified (Q-Sepharose, Strep-Tactin, Superdex 200)

The data set deals with the molecule itself. In words: SEC-MALS; 100 uL of 2 mg/mL protein on Superdex 200 10/300 HR in 100 mM Tris-HCl pH 8.0, 150 mM NaCl, 0.5 mL/min; multi-angle light scattering and differential refractive index detectors.
As to B1, the “stoichiometry N” value amounted to 4.
Next, B2: 4; B3: 2.
